Assay: yeast display, Sf9 membrane polyspecificity reagent, FACS + sequencing; frameworks hold sequencing errors
Summary of the method: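 A synthetic nanobody library was expressed on Saccharomyces cerevisiae BJ5465 by galactose induction for 36–48 hours. The library was stained for 1 hour at 4 °C with 10% biotinylated, detergent-solubilized Sf9 membrane reagent and enriched with streptavidin microbeads before FACS. Low and high (top ~1%) gates were set on anti-HA fluorescence for expression and streptavidin fluorescence for reagent binding, and each polyreactivity label reflects the gate of origin.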

Row | Sequence | polyreactivity (PSR sort gate)
1 | QLQLVESGGGLVQAGGSLRLTCAASGSIFEVKAMGWYRQAPGTERELVATITYSGGSTYYADSVKGRFTISRDNAKKTVYFQMNSLKPEDTAVYYCATHYVVWELYIYDYWGQGTQVTVSS | low polyreactivity
2 | QVQLVESGGGLVQAGGSLRLSCAASGSIFGGYAMGWYRQAPGKERELVAAISVSDDITYYADSVKGRFTISRDNAKNTVYLQMNSLKPEDTAVYYCAAEPDTNYVVRYDYWGQGTQVTVSS | high polyreactivity
3 | QVQLVESGGGLVQAGGSLRLSCADSGFTFILYAMGWYRQAPGKERELVAAITTSGGRTYYADSVKGRFTISRDNAKNTVYLQMNSLKPEDTAVYYCAAKEYYTPYRRGYWGQGTQVTVSS | high polyreactivity
4 | QVQLVESGGGLDQAGGSLRLICAASGFTYPIYAMGWYRQAPGKERELVAAITTRGGRTYYADSVKGRFTISRDNAKNTVYLQMNSLKAEDTAVYYCNALGYAYRLWFGYWGEGTQVTVSS | high polyreactivity
5 | QVQLVETGGGLVQARGSLRLSSAASGIIFYRYAMGWYRQAPGKETDFVAAISWSGGSTTYADSVKGRFTISRDNAKNTVYLQMNSLKPVDTAVYYCNAERKYWSLWGPAYDYWGQGTQVTVSS | high polyreactivity
6 | QVQLVESGGGLVQSGGSLRLSCAASGSILKPYAMGWYRQAPGKERELVAAIRSSGGRTNYADSVKGRFTISRDNAKNSVYLQMNSLKPEDTAVYYCAAGYVSYWYYRYDYWGQGTQVTVSS | high polyreactivity
7 | QVQLVESGGGLVQAGGSLRLSCAASGRILWSYPMGWYRQAPGKEREFVATINRSGGNTHYADSVKGRFTISRDNAKNTVYLQMYSLKPEDTAVYYCAALNLVPYGYQGLRYYYWGQGTQVTVSS | high polyreactivity
8 | QVQLVESGGGLVQAGGSLRLSCAASGGIFGFNAMGWYRPAPGKERELVADISDGVRTNYADSVKGRFTISRDNAKNTVYLQMNSLKPEDTAVYYCATDGLFLAWAPLGALAFDYWGQGTQVTVSS | low polyreactivity
9 | QVQLVESGGGLVQAGGSLRLSCAASGSTFDPYGMGWYRQAPGKERELVAAITSSGRTNYADSVKGRFTISRDNAKNTVYLQMKSLKPEDTAVYYCATRKERYFYRGYEYWGQGTQVTVSS | low polyreactivity
10 | QVQLEESGGGLVQVGGSLRLSCAASGLTFRYYAMGWYRQAPGKERELVAAISGSGSTTYYADSVKGRFTISRDNAKNTVYLQMNSLKPEDTAVYYCNARRTGRVGGVVTHYYWGQGTQVTVSS | high polyreactivity
11 | QVHRVVSGGGLVQAGGSLRLSCSAYGFTFYLYAMGWYRQAPGKERELVAAISSGTSTYYADSVKGRFTISRDNAKNTVYLQMNSLKPEDTAVYYCDAATNWGGEYWGHGTQVTVSS | high polyreactivity
12 | QVQLVESGGGLVQAGGSLRLTCAASGRICSNYAMGWYRPARGKERELLAAITVIGGRTYYADSVKGRFTISRDNPKNTVYLHMNSPKPEDTAVYYCAATPRRPWFYGSDYWGQGTQVTVSS | high polyreactivity
13 | QVQLVESGGGLVQAGGSLRLSCAASGRTFYSYVMGWYRQAPGKEREVVAAIPRSGGSTNYADSVKGRFTISRDNAKNTVYFQMHSRKPEDTAVYYCASRAGRTLRTHYDYWGQGTQGTVSS | high polyreactivity
14 | QFQLVESGGGLVQAGGSLRLSCAASGFIFQEYAMGWYGQAPGKERELVAAITSGGSTNYADSVKGRFTISRDNAKNTVYLQMNSLKPEDTAVYYCNVDSPDYYYDYDYWGHGTQVTVSS | low polyreactivity
15 | QVKLVESGGGLVQAGGSLRLSCAASGGNFGNYAMGWYRQAPWKERELVATIRYRGGSTYYADSVKGRFTISRDNAKITVYLQMNSLIPEDTAVFYCAARRSHPQDPRFRYGYWGQATQVTVSS | high polyreactivity
16 | QVQLVESGGGLVQAGGSLRLSCAASGFIFSYYTMGWYRQAPGKERELVAAISRNGGSTYYADSVKGRFTISRDNAKNTVYLQMNSLKPEDTAVYYCAKRVFNYQRYDYWGQGTQVTVSS | high polyreactivity
17 | QVQHVESGGGLVQEGGILRLSCAASGFTYRTYAMGWSRQAPGQESELVADISGSGGSTYYADSVKGRFTISRDNAKNTVYLQMNSQKPEDTAVFYCAADDASWSNLGYEYWGQGTQVTVSS | high polyreactivity
18 | QVQLVESGGGLVQAGGSLRLSCAASGITSRYYAMGWYRQAPGKERELVAAITSDGRTNYADSVKGRFTISRDNAKNTVYLQMNSLKPEETAVYYCAVARYPYRYDYWGQGTQVTVSS | high polyreactivity
19 | QVQLEESGGRLVQAGGSLRLSCAASGYTFPLYAMGWYRQAPGKERELVADINIGGASTYYADSVKGRFTISRDNAKNTVYLQMNSLKPEDTAVYYCAAEDSWYWDAWFDYWGQGTQVTVSS | low polyreactivity
20 | QFQLVESGGGLVQAGGSLRLSCAASGFTFAVYAMGWYRQAPWKERELVAAISRSGTRTYYADSVKGRFTISRDNAKNTVYLQMNSLKPVDTAVYYCAADKYRHGYDYWGQGTQVTVSS | low polyreactivity
21 | QVQLVESGGGLVQAGGSLRLSCAASGSIIGDNTMGWYRPAPGKERELVAAISSSGSTYYADSVKGRFTISRDNAKNTVYLQMNSLKPEDTAVYYCAAYDYGHVEYGYWGQGSQVTVSS | low polyreactivity
22 | QVQLVESGGGLVQAGGSLRLSCAASGYTFSFYAMGWYRQATGKERELVAAISRSGGSTYYADSVKGRFTISRDNAKNTVYLQMNSLKPEDTAVYYCAARWPGAYHEYGYWGQGTQVTVSS | high polyreactivity

Row | Sequence | polyreactivity (PSR sort gate)
23 | QVQLVESGGGLVQAGGSLSLSCAASGSIFGVNAMGWYRQAPGKERELVAAITLRSGSTYYADSVKGRFTISRDNAKNTVYIQMNSLKPEDTAVYYSATYSWGVDRPNYNYWGQGTQVTVSS | low polyreactivity
24 | QVQLVESGGGLVQAGGSLRLSCAASGSTFAFNAMGWYRQAPGKERELVAAISTSGGDTYYADSVKGRFTISRDNAKNTVYLQMNSLKPEDTAVYYCGGDYQVPGGSWMDYWGQGTQVTVSS | high polyreactivity
25 | QVQLVESGGGLVQAGGSLRLSCPASGRILYLNVLGWYRQEPGKERELVASITVSGGITYYADSVKGRFTISRDNAKNTVYLQMNSLKPEDTAVYYCAVDAYPPFFYFTSVWFSYDYWGQGTQVTVSS | low polyreactivity
26 | QVQLVESGGGLVQAGGSLRLSCAASGLTFGRNAMGWYRQAPGKERELVAAIRWSGGSTYYADSVKGRFTISRDNAKNTVYLQMNSLKPEDTAVYYCAATRVLRPVGTHYYYWGQGTQVTVSS | high polyreactivity
27 | QVQLVESGGGLVQAGGRLRLSCAASGTIFGPYAMGWYRQAPGKEREFVAAISRSGTRTNYADSVKGRFTISRDNAKNTVYLQMNSLKPEDTAVYYCAAGYYGPDPRNRYRYNYWGQGTQVTVSS | high polyreactivity
28 | QVQLVESGGGLVQAGGSLRLSCAASGFTFTKYAMGWYRQAPGKERELVAAITSSGGGTYYADSVKGRFTISRDYAKNTVYLQMNRLKPVDTAVYYCARDSRTGYYYWGQGTQVTVSS | high polyreactivity
29 | QVQLVESGGGIVQAGGSLRLSCAASGRTFAVYAMGWYRQAPGKERELVAAINSSGRTDYADSVKGRFTISRDNAKNTVYLQMNSLKPEDTAVYYCNADFYFRRYRYRYNYWGQGTQVTVSS | high polyreactivity
30 | QVQLVESGGGLVQAGGSLRLSCAASGSILSYYAMGWYRLAPGKEREFVAAISSGGGTYYADSVKGRFTISRDNAKNTVYLQMNSLKPEDTAVYYCNAVHASSIQFEYWGQGTKVTVSS | low polyreactivity
31 | QVQLVESGGGLVQAGGSLRLSCAASGSTLDIYAMGWYRQAPGKERELVATINSTGGSTYYADSVKGRFTISRDNAKNTVYLQMNSLNPEDTAVYYCAADFGLFGPTTGYIRPYDYWGQGTQVTVSS | low polyreactivity
32 | QVQLVESGGGLVQAGGSLRLSCAASRPIFYANAKGGYRQAPGKEREFVATIRRGTSTNYADSVKGRFTISRDNAKNTVYLQMNSLKPEDTAVYYCAVVSNGRRERYYYWGQGTQVTVSS | low polyreactivity
33 | QVQLVESGGGLVQAGGSLRLSCAASGSIFRIYAMGWYRLEPGKERELVSGISKSVGSTYYADSVKGRFTISRDNAKNTVYLQMNSLKTEDTAVYYCNARRPSWGLDKYDYWGQGTQVTVSS | low polyreactivity
34 | QVQLVESGGGLVQAGGSLRLRCAASGFIFGYYAMGWYRQAPGKERELVAAITTSGGSTYYADSVKARFTISRDNAKNTVYLQMNSLKPEDTAVYYCNKPGNYVWRRSWDFDYWGQGTQVTVSS | high polyreactivity
35 | QVQLVESGGGLVQAGGSLRLSCAASGLTFPLYAMGWYRQAPGKEREFVAAITVSGVSTSYADSEKGRFTISRDIAKITVYLQMNSLKPEDTAVYYCAADYYIWTYWDVYYWGQGTQVTVSS | high polyreactivity
36 | QVQLVESGGGLVQAGGSLRLSCAASGSIFKRNAMGWYRQAPGKERELVASISWSGTRTYYADSVKGRFTISRDKAKNTVYFQMNSLKPEDTAVYYCARRIYGGHPCQSTQGDFYYWGQGTQVTVSS | high polyreactivity
37 | QVQLVESGGGLVQAGGSLRLSCAASGRIFRYYTMGWYRQAPGKEREFVAAITLSGGRTYYADSVKGRFTISRDNAKNTVYLQMNSLKPEDTAVYYCAAYDRITRYDYWGQGTQVTVSS | high polyreactivity
38 | QVQLVESRGGLVQAGGSLRLSCSASGLTIWRYAMGWYRHEPGKEWEFVATISQNGGRTYYADSVKGRFTISRDNAKNTVYLQMNSLKPEDTAVYYCAADDWRWGYDYWGQGTQVTVSS | high polyreactivity
39 | QVQLVESGGGLVQAGGSLRLSCAASGSIFGDYVMGWYRQAPGKERELVAAINRGGSTYYADSVKARFTISRDNAKNTVYLQMNSLKPEDTAVYYCAAGYPSWYYGYPYDSWGQGTQVTVSS | low polyreactivity
40 | QVQLVESGGGLVQAGGSLRLSCAASGITFVQYAMGWYRQAPGKERELVAAIRRGGSTSYADSVKGRFTISRDNAKNTVYLQMNSLKPEDTAVYYCARRYDWPITPLDVEYWGQGTQVTVSS | low polyreactivity
41 | QVQLVESGGGLVQAGGSLRLSCAASGLTITYNAMGWYRQAPGKERELVAAISWSGDSTYADSVKGRFTISRDNAKNTVYLQKNSLKPEDTAVYYCAVPKYYYYVSRFNYWGQGTQVTVSS | high polyreactivity
42 | QVQLVESGGGLVQAGGSLRLSCAASGGTFVRNTMGWSRQAPGKERELVAGITKNGGSTYYADSVKGRFTISRDNAKNTVYLQMNSLKPEVTAVYYCAIYVSWPLYYYWGQGTQVTVSS | low polyreactivity
43 | QGQLVESGGGLVQAGGSLRLSCAASGRTFYRYAMGWYRQAPGQERELVASITRGTSTNYADSVKGRFTISRDNAKNTVYLQMNSLKPEDTAVYYCAAGASGLFWDYDYWGQGTQVTVSS | high polyreactivity

Source: the nanobody polyreactivity screen of Harvey et al. (2022)
